± gives the uncertainty stated by the source.
Assay: abundance fitness (aPCA) (normalised: wild type 0, dead -1); higher = more abundant; growth selection in yeast, the domain comes from the species named
Details: Homo sapiens
Substance “Lipoamide acyltransferase component of branched-chain alpha-keto acid dehydrogenase complex, mitochondrial I205E, P11182” has an abundance fitness of -0.289 ± 0.047. With “Lipoamide acyltransferase component of branched-chain alpha-keto acid dehydrogenase complex, mitochondrial I205G, P11182” the abundance fitness was -0.359 ± 0.037. In the case of “Lipoamide acyltransferase component of branched-chain alpha-keto acid dehydrogenase complex, mitochondrial I205H, P11182”, the abundance fitness is reported as -0.408 ± 0.064. For “Lipoamide acyltransferase component of branched-chain alpha-keto acid dehydrogenase complex, mitochondrial I205K, P11182”, the abundance fitness was -0.302 ± 0.052. “Lipoamide acyltransferase component of branched-chain alpha-keto acid dehydrogenase complex, mitochondrial I205L, P11182” gave an abundance fitness of -0.086 ± 0.037. “Lipoamide acyltransferase component of branched-chain alpha-keto acid dehydrogenase complex, mitochondrial I205M, P11182” showed an abundance fitness of -0.28 ± 0.054. “Lipoamide acyltransferase component of branched-chain alpha-keto acid dehydrogenase complex, mitochondrial I205N, P11182” gave an abundance fitness of -0.551 ± 0.11. For “Lipoamide acyltransferase component of branched-chain alpha-keto acid dehydrogenase complex, mitochondrial I205Q, P11182”, the abundance fitness was -0.302 ± 0.048. “Lipoamide acyltransferase component of branched-chain alpha-keto acid dehydrogenase complex, mitochondrial I205R, P11182” showed an abundance fitness of -0.343 ± 0.035. “Lipoamide acyltransferase component of branched-chain alpha-keto acid dehydrogenase complex, mitochondrial I205S, P11182” gave an abundance fitness of -0.332 ± 0.05. Substance “Lipoamide acyltransferase component of branched-chain alpha-keto acid dehydrogenase complex, mitochondrial I205T, P11182” has an abundance fitness of -0.337 ± 0.057. With “Lipoamide acyltransferase component of branched-chain alpha-keto acid dehydrogenase complex, mitochondrial I205V, P11182” the abundance fitness was 0.028 ± 0.042. For “Lipoamide acyltransferase component of branched-chain alpha-keto acid dehydrogenase complex, mitochondrial I205W, P11182”, the abundance fitness was -0.629 ± 0.056. In the case of “Lipoamide acyltransferase component of branched-chain alpha-keto acid dehydrogenase complex, mitochondrial I205Y, P11182”, the abundance fitness is reported as -0.349 ± 0.15. In the case of “Lipoamide acyltransferase component of branched-chain alpha-keto acid dehydrogenase complex, mitochondrial K187A, P11182”, the abundance fitness is reported as -0.14 ± 0.04. Work on “Lipoamide acyltransferase component of branched-chain alpha-keto acid dehydrogenase complex, mitochondrial K187C, P11182” yielded an abundance fitness of -0.251 ± 0.099. “Lipoamide acyltransferase component of branched-chain alpha-keto acid dehydrogenase complex, mitochondrial K187D, P11182” showed an abundance fitness of 0.009 ± 0.048. In the case of “Lipoamide acyltransferase component of branched-chain alpha-keto acid dehydrogenase complex, mitochondrial K187E, P11182”, the abundance fitness is reported as -0.133 ± 0.046. “Lipoamide acyltransferase component of branched-chain alpha-keto acid dehydrogenase complex, mitochondrial K187G, P11182” gave an abundance fitness of -0.304 ± 0.036. In the case of “Lipoamide acyltransferase component of branched-chain alpha-keto acid dehydrogenase complex, mitochondrial K187H, P11182”, the abundance fitness is reported as -0.144 ± 0.057. For “Lipoamide acyltransferase component of branched-chain alpha-keto acid dehydrogenase complex, mitochondrial K187I, P11182”, the abundance fitness was -0.078 ± 0.076. “Lipoamide acyltransferase component of branched-chain alpha-keto acid dehydrogenase complex, mitochondrial K187L, P11182” showed an abundance fitness of -0.126 ± 0.053. Work on “Lipoamide acyltransferase component of branched-chain alpha-keto acid dehydrogenase complex, mitochondrial K187M, P11182” yielded an abundance fitness of -0.075 ± 0.12. With “Lipoamide acyltransferase component of branched-chain alpha-keto acid dehydrogenase complex, mitochondrial K187N, P11182” the abundance fitness was -0.026 ± 0.072. “Lipoamide acyltransferase component of branched-chain alpha-keto acid dehydrogenase complex, mitochondrial K187P, P11182” gave an abundance fitness of 0.022 ± 0.049. With “Lipoamide acyltransferase component of branched-chain alpha-keto acid dehydrogenase complex, mitochondrial K187Q, P11182” the abundance fitness was -0.06 ± 0.045. Work on “Lipoamide acyltransferase component of branched-chain alpha-keto acid dehydrogenase complex, mitochondrial K187R, P11182” yielded an abundance fitness of -0.04 ± 0.039. In the case of “Lipoamide acyltransferase component of branched-chain alpha-keto acid dehydrogenase complex, mitochondrial K187S, P11182”, the abundance fitness is reported as -0.045 ± 0.054. Work on “Lipoamide acyltransferase component of branched-chain alpha-keto acid dehydrogenase complex, mitochondrial K187T, P11182” yielded an abundance fitness of -0.097 ± 0.057. Work on “Lipoamide acyltransferase component of branched-chain alpha-keto acid dehydrogenase complex, mitochondrial K187V, P11182” yielded an abundance fitness of -0.139 ± 0.099. “Lipoamide acyltransferase component of branched-chain alpha-keto acid dehydrogenase complex, mitochondrial K187W, P11182” gave an abundance fitness of -0.538 ± 0.05. Work on “Lipoamide acyltransferase component of branched-chain alpha-keto acid dehydrogenase complex, mitochondrial K196A, P11182” yielded an abundance fitness of -0.054 ± 0.037. “Lipoamide acyltransferase component of branched-chain alpha-keto acid dehydrogenase complex, mitochondrial K196C, P11182” gave an abundance fitness of -0.22 ± 0.051. For “Lipoamide acyltransferase component of branched-chain alpha-keto acid dehydrogenase complex, mitochondrial K196F, P11182”, the abundance fitness was -0.408 ± 0.062. “Lipoamide acyltransferase component of branched-chain alpha-keto acid dehydrogenase complex, mitochondrial K196G, P11182” gave an abundance fitness of -0.159 ± 0.036. Work on “Lipoamide acyltransferase component of branched-chain alpha-keto acid dehydrogenase complex, mitochondrial K196H, P11182” yielded an abundance fitness of -0.17 ± 0.062. In the case of “Lipoamide acyltransferase component of branched-chain alpha-keto acid dehydrogenase complex, mitochondrial K196I, P11182”, the abundance fitness is reported as -0.185 ± 0.068. “Lipoamide acyltransferase component of branched-chain alpha-keto acid dehydrogenase complex, mitochondrial K196L, P11182” showed an abundance fitness of -0.175 ± 0.04. For “Lipoamide acyltransferase component of branched-chain alpha-keto acid dehydrogenase complex, mitochondrial K196M, P11182”, the abundance fitness was -0.142 ± 0.053. For “Lipoamide acyltransferase component of branched-chain alpha-keto acid dehydrogenase complex, mitochondrial K196N, P11182”, the abundance fitness was -0.053 ± 0.076. Substance “Lipoamide acyltransferase component of branched-chain alpha-keto acid dehydrogenase complex, mitochondrial K196P, P11182” has an abundance fitness of -0.051 ± 0.047. “Lipoamide acyltransferase component of branched-chain alpha-keto acid dehydrogenase complex, mitochondrial K196Q, P11182” showed an abundance fitness of -0.077 ± 0.047. For “Lipoamide acyltransferase component of branched-chain alpha-keto acid dehydrogenase complex, mitochondrial K196R, P11182”, the abundance fitness was -0.026 ± 0.039. For “Lipoamide acyltransferase component of branched-chain alpha-keto acid dehydrogenase complex, mitochondrial K196S, P11182”, the abundance fitness was -0.121 ± 0.044. “Lipoamide acyltransferase component of branched-chain alpha-keto acid dehydrogenase complex, mitochondrial K196T, P11182” showed an abundance fitness of -0.079 ± 0.044. “Lipoamide acyltransferase component of branched-chain alpha-keto acid dehydrogenase complex, mitochondrial K196V, P11182” showed an abundance fitness of -0.124 ± 0.037. “Lipoamide acyltransferase component of branched-chain alpha-keto acid dehydrogenase complex, mitochondrial K196W, P11182” showed an abundance fitness of -0.52 ± 0.053. “Lipoamide acyltransferase component of branched-chain alpha-keto acid dehydrogenase complex, mitochondrial K196Y, P11182” showed an abundance fitness of -0.222 ± 0.058.

Source: the Human Domainome abundance scans (Beltran et al. 2025)
